Experimental data published in patent US20060257938A1, “Method of screening for drugs that block ligand binding to a lipid binding protein” (priority 2005, published 2006).

B1: 21F 78V 102V 72A (protein, listed as Rattus norvegicus)
chain: AFDGTWKVDRNENYEKFMEKFGINVVKRKLGAHDNLKLTITQEGNKFTVKESSNFRNIDVVFELGVDFAYSAADGTEVTGTWTMEGNKLVGKFKRVDNGKEVIAVREISGNELIQTYTYEGVEAKRIFKKE
modifications: PEPTIDE (1)...(131) wild-type rat intestinal fatty acid binding protein
B2: 72T 74I (protein, listed as Rattus norvegicus)
chain: AFDGTWKVDRNENYEKFMEKMGINVVKRKLGAHDNLKLTITQEGNKFTVKESSNFRNIDVVFELGVDFAYSTAIGTELTGTWTMEGNKLVGKFKRVDNGKELIAVREISGNELIQTYTYEGVEAKRIFKKE
modifications: PEPTIDE (1)...(131) wild-type rat intestinal fatty acid binding protein
B3: 72T 73V 74L (protein, listed as Rattus norvegicus)
chain: AFDGTWKVDRNENYEKFMEKMGINVVKRKLGAHDNLKLTITQEGNKFTVKESSNFRNIDVVFELGVDFAYSTVLGTELTGTWTMEGNKLVGKFKRVDNGKELIAVREISGNELIQTYTYEGVEAKRIFKKE
modifications: PEPTIDE (1)...(131) wild-type rat intestinal fatty acid binding protein
B4: 72T 74V (protein, listed as Rattus norvegicus)
chain: AFDGTWKVDRNENYEKFMEKMGINVVKRKLGAHDNLKLTITQEGNKFTVKESSNFRNIDVVFELGVDFAYSTAVGTELTGTWTMEGNKLVGKFKRVDNGKELIAVREISGNELIQTYTYEGVEAKRIFKKE
modifications: PEPTIDE (1)...(131) wild-type rat intestinal fatty acid binding protein
B5: 21Y 78I 102I 72A (protein, listed as Rattus norvegicus)
chain: AFDGTWKVDRNENYEKFMEKYGINVVKRKLGAHDNLKLTITQEGNKFTVKESSNFRNIDVVFELGVDFAYSAADGTEITGTWTMEGNKLVGKFKRVDNGKEIIAVREISGNELIQTYTYEGVEAKRIFKKE
modifications: PEPTIDE (1)...(131) wild-type rat intestinal fatty acid binding protein
B6: 72T 73W 74L (protein, listed as Rattus norvegicus)
chain: AFDGTWKVDRNENYEKFMEKMGINVVKRKLGAHDNLKLTITQEGNKFTVKESSNFRNIDVVFELGVDFAYSTWLGTELTGTWTMEGNKLVGKFKRVDNGKELIAVREISGNELIQTYTYEGVEAKRIFKKE
modifications: PEPTIDE (1)...(131) wild-type rat intestinal fatty acid binding protein
B7: 72W 73T 74G (protein, listed as Rattus norvegicus)
chain: AFDGTWKVDRNENYEKFMEKMGINVVKRKLGAHDNLKLTITQEGNKFTVKESSNFRNIDVVFELGVDFAYSWTGGTELTGTWTMEGNKLVGKFKRVDNGKELIAVREISGNELIQTYTYEGVEAKRIFKKE
modifications: PEPTIDE (1)...(131) wild-type rat intestinal fatty acid binding protein
B8: 72S 73L 74A (protein, listed as Rattus norvegicus)
chain: AFDGTWKVDRNENYEKFMEKMGINVVKRKLGAHDNLKLTITQEGNKFTVKESSNFRNIDVVFELGVDFAYSSLAGTELTGTWTMEGNKLVGKFKRVDNGKELIAVREISGNELIQTYTYEGVEAKRIFKKE
modifications: PEPTIDE (1)...(131) wild-type rat intestinal fatty acid binding protein
B9: 72T 73V 74V (protein, listed as Rattus norvegicus)
chain: AFDGTWKVDRNENYEKFMEKMGINVVKRKLGAHDNLKLTITQEGNKFTVKESSNFRNIDVVFELGVDFAYSTVVGTELTGTWTMEGNKLVGKFKRVDNGKELIAVREISGNELIQTYTYEGVEAKRIFKKE
modifications: PEPTIDE (1)...(131) wild-type rat intestinal fatty acid binding protein
B10: 72G 73W (protein, listed as Rattus norvegicus)
chain: AFDGTWKVDRNENYEKFMEKMGINVVKRKLGAHDNLKLTITQEGNKFTVKESSNFRNIDVVFELGVDFAYSGWDGTELTGTWTMEGNKLVGKFKRVDNGKELIAVREISGNELIQTYTYEGVEAKRIFKKE
modifications: PEPTIDE (1)...(131) wild-type rat intestinal fatty acid binding protein
B11: 72S 73V 74V (protein, listed as Rattus norvegicus)
chain: AFDGTWKVDRNENYEKFMEKMGINVVKRKLGAHDNLKLTITQEGNKFTVKESSNFRNIDVVFELGVDFAYSSVVGTELTGTWTMEGNKLVGKFKRVDNGKELIAVREISGNELIQTYTYEGVEAKRIFKKE
modifications: PEPTIDE (1)...(131) wild-type rat intestinal fatty acid binding protein
B12: 72T 73V 74S (protein, listed as Rattus norvegicus)
chain: AFDGTWKVDRNENYEKFMEKMGINVVKRKLGAHDNLKLTITQEGNKFTVKESSNFRNIDVVFELGVDFAYSTVSGTELTGTWTMEGNKLVGKFKRVDNGKELIAVREISGNELIQTYTYEGVEAKRIFKKE
modifications: PEPTIDE (1)...(131) wild-type rat intestinal fatty acid binding protein
B13: 72T 73Q 74A (protein, listed as Rattus norvegicus)
chain: AFDGTWKVDRNENYEKFMEKMGINVVKRKLGAHDNLKLTITQEGNKFTVKESSNFRNIDVVFELGVDFAYSTQAGTELTGTWTMEGNKLVGKFKRVDNGKELIAVREISGNELIQTYTYEGVEAKRIFKKE
modifications: PEPTIDE (1)...(131) wild-type rat intestinal fatty acid binding protein

How the values were obtained:
Type in all cases: binding
[1] = Probe fluorescence ratio response to linolenic acid relative to ADIFAB2; settings: response relative to ADIFAB2
Method in brief: (§1)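 Each fatty acid's response was expressed relative to ADIFAB2, the rI-FABP-L72A probe, as ΔR/ΔRreference. ΔR is the change in the background-corrected two-wavelength intensity ratio R=Fλ1/Fλ2 from its analyte-free baseline R0. Emission was read near about 420-480 nm for unbound and about 495-580 nm for FFA-bound probe.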

[2] = Probe fluorescence ratio response to linoleic acid relative to ADIFAB2; settings: response relative to ADIFAB2
Method in brief: as §1

[3] = Probe fluorescence ratio response to palmitoleic acid relative to ADIFAB2; settings: response relative to ADIFAB2
Description: (§2) In an alternate preferred embodiment, the protein is rI-FABP that has Ala substituted for Leu at position 72 (rI-FABP-L72A) with the resulting probe named ADIFAB2. […] Other probes useful in embodiments of the invention are shown in Tables 1-6 and are also described in U.S. application Ser. No. 11/085,792, filed Mar. 21, 2005 which is incorporated herein by reference. The indicated substitutions are with reference to the ADIFAB protein of SEQ ID NO: 2.
(§3) ADIFAB2 also has an altered spectral response, making it especially useful for measurements of FFAu in blood samples (Apple et al, Clinical Proteomics, (2004) 1:41-44, U.S. patent application Ser. No. 10/670,958). The wavelengths at the maximum intensities emitted by these fluorescently-labeled I-FABP's in the absence of FFA is about 420 to 480 nm. The emission wavelengths at the maximum intensities emitted by these fluorescently-labeled I-FABP's with FFA bound are between about 495 to 580 nm. Experiments typically involve measuring the fluorescence response within both emission maxima or at wavelengths for which the effect of interfering molecules such as hemoglobin can be eliminated as described in U.S. application Ser. No. 10/670958 and PCT/US2004/030521 and the calculation of the ratio ‘R’ of the two fluorescence intensities. The baseline value for this ratio, measured in the absence of analyte, is designated R0.
(§4) The intensity ratio (“R” value) is determined as follows. The ratio is calculated using the following formula: R=Fλ1/Fλ2 wherein, Fλ1 is the measured fluorescence intensities (intensity of sample with probe present minus intensity of sample without probe present) at wavelength 1 and Fλ2 is the measured fluorescence intensities (intensity of sample with probe present minus intensity of sample without probe present) at wavelength 2. Then, for a given probe, ΔR, the difference in R value between the measurement in the presence of the test compound (agent) and in the absence of the test compound (agent), is calculated as follows: ΔR=R+agent−R0 In some embodiments, the ΔR value may then be compared to some reference, for example, an agent with a known affinity for a given probe, by ΔR/ΔRreference. Measurements of fluorescence intensities are obtained using standard techniques.

[4] = Probe fluorescence ratio response to oleic acid relative to ADIFAB2; settings: response relative to ADIFAB2
Method in brief: as §1

[5] = Probe fluorescence ratio response to stearic acid relative to ADIFAB2; settings: response relative to ADIFAB2
Description: as §2, §3, §4

[6] = Probe fluorescence ratio response to arachidonic acid relative to ADIFAB2; settings: arachidonic acid; response relative to ADIFAB2
Method in brief: as §1

[7] = Probe fluorescence ratio response to palmitic acid relative to ADIFAB2; settings: response relative to ADIFAB2
Method in brief: as §1

| Molecule | DR/DR LNA [1] | DR/DR LA [2] | DR/DR POA [3] | DR/DR OA [4] | DR/DR SA [5] | DR/DR AA [6] | DR/DR PA [7] |
| --- | --- | --- | --- | --- | --- | --- | --- |
| B1 | 3.775 | 4.204 | 3.365 | 4.223 | 3.120 | 4.511 | 2.756 |
| B2 | 3.169 | 3.156 | 3.410 | 2.660 | 1.806 | 2.502 | 2.476 |
| B3 | 3.508 | 3.165 | 3.642 | 2.832 | 1.411 | 2.774 | 2.674 |
| B4 | 3.680 | 3.630 | 4.074 | 2.957 | 1.781 | 2.680 | 3.149 |
| B5 | 2.454 | 2.879 | 2.089 | 3.424 | 2.774 | 3.536 | 1.870 |
| B6 | 3.009 | 2.819 | 3.574 | 2.340 | 1.217 | 2.721 | 2.727 |
| B7 | 3.394 | 3.099 | 4.105 | 2.514 | 1.040 | 2.808 | 2.934 |
| B8 | 3.322 | 3.455 | 3.923 | 3.495 | 2.574 | 3.336 | 3.293 |
| B9 | 3.618 | 3.502 | 4.015 | 3.166 | 1.918 | 3.237 | 2.987 |
| B10 | 3.637 | 2.698 | 4.082 | 1.106 | 0.294 | 2.260 | 2.968 |
| B11 | 3.088 | 3.085 | 3.322 | 2.556 | 1.058 | 2.712 | 2.091 |
| B12 | 2.579 | 2.611 | 2.909 | 2.670 | 2.195 | 2.540 | 2.629 |
| B13 | 2.850 | 3.163 | 3.632 | 3.136 | 2.318 | 2.392 | 3.473 |
